This note sets out measurements from patent publication US20160250307A1 (IMMATICS BIOTECHNOLOGIES, published 2016).

For experiment [1], the target named is HLA-A*02 (human). The experiment in a line: UV-ligand exchange, anti-b2m ELISA; grade: exchange yield >=75%. Background: ELISA stands for enzyme-linked immunosorbent assay.
Experiment [2] has as its target HLA-A*02 (human). Described as above. The source holds these as a separate data set.
The target in experiment [3] is HLA-A*02 (human). Description: UV-ligand exchange, anti-b2m ELISA; grade: exchange yield >=20%.
The target of experiment [4] is HLA-A*02 (human). The experiment in a line: UV-ligand exchange, anti-b2m ELISA; grade: exchange yield 50%-75%.
The target of experiment [5] is HLA-A*02 (human). The experiment in a line: UV-ligand exchange, anti-b2m ELISA; grade: exchange yield >=50%.

In the case of ALVEQGFTV (also called APOB-001), the peptide exchange yield in experiment [1] and in experiment [2] was no less than 75% throughout. For LLYGHTVTV (also called SLC35B2-001), the peptide exchange yield in experiment [1] and in experiment [2] was no less than 75% each time. TLAQQPTAV: the peptide exchange yield in experiment [3] lay in the range of 20 to 50%. Consider GVMAGDIYSV (also called ADF-012), for which the peptide exchange yield in experiment [1] and in experiment [2] was no less than 75% throughout. Turning to FLAELAYDL (also called GPC3-001), the peptide exchange yield in experiment [1] and in experiment [2] was no less than 75% in each case. As for ALLKVNQEL (also called SAMM-001), the peptide exchange yield in experiment [1] and in experiment [2] was no less than 75% each time.

As for KLAEIVKQV (also called MAPKAPK5-001), the peptide exchange yield in experiment [1] and in experiment [2] was no less than 75% in each case.

For ALADLTGTVV (also called NCST-001), the peptide exchange yield in experiment [1] and in experiment [2] was no less than 75% throughout. Molecule VLADFGARV (also called C1QTNF3-001) had a peptide exchange yield in experiment [4] of 50 to 75%.

Turning to FLDTPIAKV, the peptide exchange yield in experiment [3] is 20 to 50%.

As to KLSPTVVGL (also called AXIN2-001), the peptide exchange yield in experiment [5] and in experiment [4] was 50 to 75% in each case. Molecule KIAGTNAEV gave a peptide exchange yield in experiment [3] of 20 to 50%.

Turning to KLLEEATISV (also called DYM-001), the peptide exchange yield in experiment [5] and in experiment [4] was 50 to 75% in each case. With SLLEEFDFHV (also called USO-001), the peptide exchange yield in experiment [1] and in experiment [2] was no less than 75% throughout. As to GLIDTETAMKAV (also called HSD11B1-001), the peptide exchange yield in experiment [1] and in experiment [2] was no less than 75% throughout. In experiment [3], RIISGLVKV displayed a peptide exchange yield of 20 to 50%. Same read-out and setting: the value for TLITDGMRSV was 20 to 50%; that for RLLAKIICL was 20 to 50%; that for FLASESLIKQI was 20 to 50%. As for YLITSVELL (also called ACSL4-001), the peptide exchange yield in experiment [1] and in experiment [2] was no less than 75% in each case. As to GVYDGEEHSV (also called MAGEB2-001), the peptide exchange yield in experiment [4] lay within 50 to 75%. With GLAEELVRA, the peptide exchange yield in experiment [3] was 20 to 50%. With LTDITKGV, the peptide exchange yield in experiment [3] lay within 20 to 50%. The same measure, in the same setting: the value for TMAKESSIIGV was 20 to 50%. For VMAPFTMTI (also called APOB-003), the peptide exchange yield in experiment [1] and in experiment [2] was no less than 75% in each case.

For the molecule SLIDQFFGV (also called USP14-001), the peptide exchange yield in experiment [1] was no less than 75%.

In experiment [3], FVLPLLGLHEA yielded a peptide exchange yield of 20 to 50%.

In the case of FTIPKLYQL, the peptide exchange yield in experiment [3] is 20 to 50%. Consider KLQDFSDQL (also called APOB-004), for which the peptide exchange yield in experiment [1] and in experiment [2] was no less than 75% each time. VLTEFTREV (also called IPO9-001): the peptide exchange yield in experiment [1] and in experiment [2] was no less than 75% throughout. Consider RIPAYFVTV, for which, in experiment [3], the peptide exchange yield fell in the range of 20 to 50%.

In the case of SLLGGNIRL (also called ACSL3-001), the peptide exchange yield in experiment [1] and in experiment [2] was no less than 75% in each case. With RLMSALTQV, the peptide exchange yield in experiment [3] was 20 to 50%.

For the molecule FLFNTENKLLL (also called IDI1-001), the peptide exchange yield in experiment [1] and in experiment [2] was no less than 75% each time. YLYNNEEQVGL displayed a peptide exchange yield in experiment [3] of 20 to 50%. The same measure, in the same setting: under AMPPPPPQGV stands 20 to 50%; under RVPPPPQSV, 20 to 50%. Same read-out and setting: the value for FLWTEQAHTV was 20 to 50%. Regarding ALVDTLKFV (also called APOB-002), the peptide exchange yield in experiment [1] and in experiment [2] was no less than 75% throughout. In experiment [3], KLLAATVLLL gave a peptide exchange yield of 20 to 50%. For ALASVIKEL (also called IFT81-001), the peptide exchange yield in experiment [1] was no less than 75%; in experiment [5], 50 to 75%. For FLYPEKDEPT, the peptide exchange yield in experiment [3] lay in the range of 20 to 50%.

AVLGPLGLQEV (also called THT-001): the peptide exchange yield in experiment [5] and in experiment [4] was 50 to 75% each time.
